Test results published in publication PMC9668737, “Herpes simplex virus 1 protein pUL21 alters ceramide metabolism by activating the interorganelle transport protein CERT” (The Journal of Biological Chemistry, 2022).
Numbering of substitutions follows the chain as printed. Numbers in names are those of the source. Where “and” joins values, the source holds several entries; their conditions need not be identical. Equal values may be shown once.

T1: pUL21-H6 (HSV-1 pUL21) (herpes simplex virus 1, UniProt F8RG07 1-535)
T1 construct: tegument protein pUL21 of herpes simplex virus 1, UniProt F8RG07; source: E. coli T7 Express lysY/Iq, purified (Ni-NTA, SEC); not shown: His6, C-terminal, kept
T1 sequence: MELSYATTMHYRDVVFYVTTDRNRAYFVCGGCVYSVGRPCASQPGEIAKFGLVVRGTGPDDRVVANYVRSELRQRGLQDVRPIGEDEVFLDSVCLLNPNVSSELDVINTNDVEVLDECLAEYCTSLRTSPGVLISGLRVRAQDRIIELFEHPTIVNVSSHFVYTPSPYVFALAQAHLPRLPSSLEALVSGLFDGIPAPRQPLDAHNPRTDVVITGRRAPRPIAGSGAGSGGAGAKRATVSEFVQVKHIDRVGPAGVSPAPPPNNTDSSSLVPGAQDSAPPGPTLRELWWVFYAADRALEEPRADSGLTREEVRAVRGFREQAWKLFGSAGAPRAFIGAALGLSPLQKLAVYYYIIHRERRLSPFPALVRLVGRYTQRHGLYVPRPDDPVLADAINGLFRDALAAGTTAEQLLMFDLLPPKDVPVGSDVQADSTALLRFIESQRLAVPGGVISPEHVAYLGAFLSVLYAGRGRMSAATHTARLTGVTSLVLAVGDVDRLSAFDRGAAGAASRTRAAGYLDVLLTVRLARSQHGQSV

T2: H6-pUL21C (C-terminal domain of HSV-1 pUL21, amino acids 275 to 535) (herpes simplex virus 1, UniProt F8RG07 275-535)
T2 construct: C-terminal domain of pUL21 of herpes simplex virus 1, residues 275-535 of UniProt F8RG07; source: E. coli T7 Express lysY/Iq, purified (Ni-NTA, SEC); not shown: MAH6, N-terminal, kept
T2 sequence: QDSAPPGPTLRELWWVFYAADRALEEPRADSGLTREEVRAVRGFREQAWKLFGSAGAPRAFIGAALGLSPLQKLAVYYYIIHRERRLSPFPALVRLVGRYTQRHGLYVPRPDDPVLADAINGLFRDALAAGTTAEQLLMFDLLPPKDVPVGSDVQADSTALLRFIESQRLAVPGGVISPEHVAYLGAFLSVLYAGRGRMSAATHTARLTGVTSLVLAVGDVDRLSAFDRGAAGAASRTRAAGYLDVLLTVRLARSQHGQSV

T3: pUL21^V382E-H6 (HSV-1 pUL21 with V382E) (herpes simplex virus 1, UniProt F8RG07 1-535, V382E)
T3 construct: tegument protein pUL21 of herpes simplex virus 1, UniProt F8RG07, with V382E; the text also writes H6-pUL21^V382E; also called H6-pUL21^V382E; source: E. coli T7 Express lysY/Iq, purified (Ni-NTA, SEC); not shown: His6, C-terminal, kept
T3 sequence: T1 sequence with V382E

T4: StrepII-CERT^P (UniProt Q9Y5P4-2 1-598, hyperphosphorylated (sites not given))
T4 sequence (looked up): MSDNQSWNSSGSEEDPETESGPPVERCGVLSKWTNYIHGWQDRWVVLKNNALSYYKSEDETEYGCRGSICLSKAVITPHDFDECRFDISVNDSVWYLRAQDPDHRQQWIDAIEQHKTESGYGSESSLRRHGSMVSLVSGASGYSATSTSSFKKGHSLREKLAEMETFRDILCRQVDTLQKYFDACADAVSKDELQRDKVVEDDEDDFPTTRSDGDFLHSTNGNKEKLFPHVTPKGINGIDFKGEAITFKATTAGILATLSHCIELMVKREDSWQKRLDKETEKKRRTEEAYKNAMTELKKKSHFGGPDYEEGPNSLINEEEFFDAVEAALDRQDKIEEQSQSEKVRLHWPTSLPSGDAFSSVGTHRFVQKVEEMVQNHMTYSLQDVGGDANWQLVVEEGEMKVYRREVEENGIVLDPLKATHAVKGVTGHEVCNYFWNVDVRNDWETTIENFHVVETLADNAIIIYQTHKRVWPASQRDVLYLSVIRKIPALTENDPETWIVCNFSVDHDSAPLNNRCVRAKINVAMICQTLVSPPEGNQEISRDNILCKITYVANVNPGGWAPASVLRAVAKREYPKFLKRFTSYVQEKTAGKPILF

T5: pUL21-H6 (herpes simplex virus 1 (HSV-1), UniProt F8RG07 1-535)
T5 construct: HSV-1 pUL21, UniProt F8RG07; some paragraphs print H6-pUL21; also called H6-pUL21; WT pUL21; source: E. coli T7 Express lysY/Iq, purified (Ni-NTA, SEC); not shown: His6, C-terminal, kept
T5 sequence: T1 sequence

T6: H6-pUL21C (herpes simplex virus 1 (HSV-1), UniProt F8RG07 275-535)
T6 construct: HSV-1 pUL21 C-terminal domain, amino acids 275-535, UniProt F8RG07; Cloned in pOPTH; Monomer by SEC-MALS and SAXS; also called C-terminal domain of pUL21; source: E. coli T7 Express lysY/Iq, purified (Ni-NTA, SEC); not shown: MAH6, N-terminal, kept
T6 sequence: T2 sequence

B1: StrepII-CERTL^P (hyperphosphorylated human CERTL) (natural protein, UniProt Q9Y5P4-1 1-624, looked up)
chain: MSDNQSWNSSGSEEDPETESGPPVERCGVLSKWTNYIHGWQDRWVVLKNNALSYYKSEDETEYGCRGSICLSKAVITPHDFDECRFDISVNDSVWYLRAQDPDHRQQWIDAIEQHKTESGYGSESSLRRHGSMVSLVSGASGYSATSTSSFKKGHSLREKLAEMETFRDILCRQVDTLQKYFDACADAVSKDELQRDKVVEDDEDDFPTTRSDGDFLHSTNGNKEKLFPHVTPKGINGIDFKGEAITFKATTAGILATLSHCIELMVKREDSWQKRLDKETEKKRRTEEAYKNAMTELKKKSHFGGPDYEEGPNSLINEEEFFDAVEAALDRQDKIEEQSQSEKVRLHWPTSLPSGDAFSSVGTHRFVQKPYSRSSSMSSIDLVSASDDVHRFSSQVEEMVQNHMTYSLQDVGGDANWQLVVEEGEMKVYRREVEENGIVLDPLKATHAVKGVTGHEVCNYFWNVDVRNDWETTIENFHVVETLADNAIIIYQTHKRVWPASQRDVLYLSVIRKIPALTENDPETWIVCNFSVDHDSAPLNNRCVRAKINVAMICQTLVSPPEGNQEISRDNILCKITYVANVNPGGWAPASVLRAVAKREYPKFLKRFTSYVQEKTAGKPILF
modifications: hyperphosphorylated (CERTL^P); sites not given
notes: ceramide transport protein CERT, longer cytoplasmic isoform CERTL (with exon 11), human, UniProt Q9Y5P4-1; not shown: StrepII, N-terminal, kept
B2: StrepII-CERTL^S132A (constitutively hypophosphorylated human CERTL) (natural protein, UniProt Q9Y5P4-1 1-624, looked up)
chain: B1 chain with S132A
notes: ceramide transport protein CERT, longer cytoplasmic isoform CERTL, human, UniProt Q9Y5P4-1, with S132A; source: Freestyle 293F cells, stably transfected, doxycycline-induced, purified (StrepTrap, SEC); not shown: StrepII, N-terminal, kept
B3: H6-miniCERTL (CERTL residues 20-131 plus 351-624) (domain or fragment, human, UniProt Q9Y5P4-1 20-131, looked up)
chain: SGPPVERCGVLSKWTNYIHGWQDRWVVLKNNALSYYKSEDETEYGCRGSICLSKAVITPHDFDECRFDISVNDSVWYLRAQDPDHRQQWIDAIEQHKTESGYGSESSLRRHGTSLPSGDAFSSVGTHRFVQKPYSRSSSMSSIDLVSASDDVHRFSSQVEEMVQNHMTYSLQDVGGDANWQLVVEEGEMKVYRREVEENGIVLDPLKATHAVKGVTGHEVCNYFWNVDVRNDWETTIENFHVVETLADNAIIIYQTHKRVWPASQRDVLYLSVIRKIPALTENDPETWIVCNFSVDHDSAPLNNRCVRAKINVAMICQTLVSPPEGNQEISRDNILCKITYVANVNPGGWAPASVLRAVAKREYPKFLKRFTSYVQEKTAGKPILF
notes: human CERTL, PH domain and start of the middle region, residues 20-131 of Q9Y5P4-1; human CERTL, end of the middle region and STARTL domain, residues 351-624 of Q9Y5P4-1 (middle region residues 132-350 left out); source: E. coli T7 Express lysY/Iq, purified (Ni-NTA, SEC); not shown: MAH6, N-terminal, kept
B4: pUL21^V382E-H6 (natural protein)
chain: T1 sequence with V382E
B5: H6-miniCERTL (domain or fragment, human, UniProt Q9Y5P4-1 20-624, looked up)
chain: B3 chain
notes: human CERTL, UniProt Q9Y5P4-1, residues 20-131 plus 351-624 (PH and STARTL domains joined by a retained 23 amino acid stretch of the middle region); Cloned into pOPTH; Monomer by SEC-MALS; source: E. coli T7 Express lysY/Iq, purified (Ni-NTA, SEC); not shown: MAH6, N-terminal, kept

What was measured:
pUL21-H6 (HSV-1 pUL21) = molecular target: T1, pUL21-H6 (HSV-1 pUL21); experiment: ITC; CERTL forms in the syringe titrated into pUL21 forms in the cell; 25 °C; 20 mM Tris pH 8.5, 500 mM NaCl, 0.5 mM TCEP; one-site binding model; single titrations; settings: both partners purified
[1] = molecular target: T2, H6-pUL21C (C-terminal domain of HSV-1 …); experiment: as above; settings: both partners purified
[2] = molecular target: T3, pUL21^V382E-H6 (HSV-1 pUL21 with V382E); experiment: as above; settings: both partners purified
StrepII-CERT^P = molecular target: T4, StrepII-CERT^P; experiment: cell-based or functional assay
pUL21^V382E-H6 = molecular target: B4; experiment: ITC; 25 °C; 20 mM Tris pH 8.5, 500 mM NaCl, 0.5 mM TCEP; CERTL forms in the syringe titrated into pUL21 forms in the cell; one-site binding model; settings: both partners purified
pUL21-H6 = molecular target: T5, pUL21-H6; experiment: as above; settings: both partners purified
H6-pUL21C = molecular target: T6, H6-pUL21C; experiment: as above; settings: both partners purified

For B1, the “stoichiometry N” value (pUL21-H6 (HSV-1 pUL21)) was 0.76 and 0.72 and 0.74.

For B2, the “stoichiometry N” value (pUL21-H6 (HSV-1 pUL21)) was 0.93 and 1.01.

For B3, the Kd [1] was 5.5 µM and 3.15 µM, the “stoichiometry N” value [1] was 0.95 and 1 and the Kd [2] was 8.39 µM and 8.83 µM and 7.04 µM. The “stoichiometry N” value [2] was 1.22 and 1.01 and 1.25.

B4 was tested, and the “EC50 of pUL21^V382E-H6 (62.5 nM to 4 μM) for accelerating GST-PP1-mediated dephosphorylation of 0.5 μM CERT^P in vitro, all proteins purified, 25 nM GST-PP1γ, 30 min at 30 °C” value (StrepII-CERT^P) was 3.33 μM.

With B5 the Kd (pUL21^V382E-H6) was 8.09 µM, the dH (pUL21^V382E-H6) was -7.2 kcal/mol and the “stoichiometry N” value (pUL21^V382E-H6) was 1.16. The Kd (pUL21-H6) was 1.04 µM, the dH (pUL21-H6) was -8.65 kcal/mol and the “stoichiometry N” value (pUL21-H6) was 0.89. For the same binder, the dH (H6-pUL21C) was -3.84 kcal/mol and the “stoichiometry N” value (H6-pUL21C) was 0.97.
